Assay results taken from the supplement of paper PMC9112550, “Optimization of the antimicrobial peptide Bac7 by deep mutational scanning” (BMC Biology, 2022).

System: Escherichia coli TOP10
Experiment: shrunken log2 fold change of peptide-encoding DNA abundance (4.5 h post-induction vs induction); higher = less antimicrobial activity (less host growth inhibition)
Conditions: time post-induction: 4.5 h; library: site-saturation at positions 5, 18, 19, 20
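Note: peptides expressed intracellularly from a pBAD plasmid library in pooled LB shake-flask culture, induced with 0.3% L-arabinose, DNA abundance read by NGS, three biological replicates, DESeq2 with apeglm shrinkage.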

Row | Sequence | shrunken log2 fold change
1 | RRIRLRPPRLPRPRPRPDEGPRP | -0.018
2 | RRIRPRPPRLPRPRPRPGAKPRP | 0.265
3 | RRIRQRPPRLPRPRPRPGSKPRP | -0.00453
4 | RRIRLRPPRLPRPRPRPWKWPRP | -0.184
5 | RRIRSRPPRLPRPRPRPKWGPRP | 0.228
6 | RRIRERPPRLPRPRPRPMNNPRP | -0.637
7 | RRIRWRPPRLPRPRPRPLVMPRP | 0.000565
8 | RRIRDRPPRLPRPRPRPPPVPRP | 0.867
9 | RRIRWRPPRLPRPRPRPINMPRP | -0.328
10 | RRIRDRPPRLPRPRPRPSFDPRP | -0.0842
11 | RRIRTRPPRLPRPRPRPTTIPRP | -0.111
12 | RRIRFRPPRLPRPRPRPHHCPRP | -0.198
13 | RRIRDRPPRLPRPRPRPVMNPRP | -0.343
14 | RRIRARPPRLPRPRPRPSYIPRP | -0.647
15 | RRIRARPPRLPRPRPRPGVLPRP | 0.2
16 | RRIRVRPPRLPRPRPRPEMFPRP | -0.0822
17 | RRIRFRPPRLPRPRPRPVEVPRP | -1.6
18 | RRIRFRPPRLPRPRPRPDRIPRP | 0.0156
19 | RRIRRRPPRLPRPRPRPFQMPRP | -0.138
20 | RRIRSRPPRLPRPRPRPMIIPRP | -0.182
21 | RRIRCRPPRLPRPRPRPLHFPRP | -0.131
22 | RRIRDRPPRLPRPRPRPDVLPRP | 0.0169

Row | Sequence | shrunken log2 fold change
23 | RRIRMRPPRLPRPRPRPPCGPRP | 0.788
24 | RRIRVRPPRLPRPRPRPAIAPRP | 0.107
25 | RRIRARPPRLPRPRPRPKDSPRP | 0.181
26 | RRIRNRPPRLPRPRPRPSKQPRP | 0.00527
27 | RRIRSRPPRLPRPRPRPIYFPRP | -0.397
28 | RRIRSRPPRLPRPRPRPALCPRP | 0.292
29 | RRIRYRPPRLPRPRPRPPVRPRP | 0.0631
30 | RRIRHRPPRLPRPRPRPHILPRP | -0.084
31 | RRIRHRPPRLPRPRPRPHLLPRP | -0.286
32 | RRIRMRPPRLPRPRPRPYEKPRP | -0.111
33 | RRIRERPPRLPRPRPRPGEPPRP | -0.107
34 | RRIRKRPPRLPRPRPRPCLRPRP | -0.081
35 | RRIRIRPPRLPRPRPRPAGSPRP | -0.0214
36 | RRIRGRPPRLPRPRPRPLIIPRP | -0.05
37 | RRIRARPPRLPRPRPRPEAMPRP | 0.805
38 | RRIRSRPPRLPRPRPRPCKTPRP | 0.0503
39 | RRIRVRPPRLPRPRPRPTKGPRP | 0.118
40 | RRIRDRPPRLPRPRPRPVVTPRP | 0.689
41 | RRIRFRPPRLPRPRPRPHWCPRP | -0.262
42 | RRIRTRPPRLPRPRPRPPNIPRP | -0.355
43 | RRIRIRPPRLPRPRPRPMVNPRP | -0.294
44 | RRIRNRPPRLPRPRPRPMAPPRP | -0.0631

Row | Sequence | shrunken log2 fold change
45 | RRIRRRPPRLPRPRPRPAAGPRP | 0.326
46 | RRIRNRPPRLPRPRPRPNTNPRP | -0.59
47 | RRIRLRPPRLPRPRPRPNKVPRP | -0.21
48 | RRIRHRPPRLPRPRPRPQIGPRP | -0.0135
49 | RRIRFRPPRLPRPRPRPIQAPRP | 0.00328
50 | RRIRNRPPRLPRPRPRPCVWPRP | -0.024
51 | RRIRNRPPRLPRPRPRPVSIPRP | -0.0773
52 | RRIRFRPPRLPRPRPRPHHMPRP | 0.335
53 | RRIRCRPPRLPRPRPRPGGCPRP | 0.153
54 | RRIRHRPPRLPRPRPRPRTYPRP | -0.749
55 | RRIRARPPRLPRPRPRPKSTPRP | 0.28
56 | RRIRHRPPRLPRPRPRPVGMPRP | -0.63
57 | RRIRLRPPRLPRPRPRPQMPPRP | -0.417
58 | RRIRLRPPRLPRPRPRPIFAPRP | 0.331
59 | RRIRYRPPRLPRPRPRPWLRPRP | 0.0188
60 | RRIRPRPPRLPRPRPRPTSWPRP | 0.769
61 | RRIRGRPPRLPRPRPRPEELPRP | 1.39
62 | RRIRARPPRLPRPRPRPQVQPRP | 0.0275
63 | RRIRQRPPRLPRPRPRPRNGPRP | -0.0342
64 | RRIRYRPPRLPRPRPRPAAWPRP | 0.00758
65 | RRIRLRPPRLPRPRPRPWGFPRP | -0.0515
66 | RRIRYRPPRLPRPRPRPWAQPRP | -0.37

Row | Sequence | shrunken log2 fold change
67 | RRIRSRPPRLPRPRPRPIKCPRP | -0.0332
68 | RRIRPRPPRLPRPRPRPFGEPRP | 0.0159
69 | RRIRDRPPRLPRPRPRPHCWPRP | 0.15
70 | RRIRHRPPRLPRPRPRPGVEPRP | 0.0675
71 | RRIRQRPPRLPRPRPRPQASPRP | 0.0433
72 | RRIRERPPRLPRPRPRPIFSPRP | 0.0654
73 | RRIRGRPPRLPRPRPRPNWYPRP | -0.0124
74 | RRIRMRPPRLPRPRPRPRSKPRP | 0.907
75 | RRIRIRPPRLPRPRPRPICKPRP | -0.199
76 | RRIRNRPPRLPRPRPRPLWLPRP | -0.181
77 | RRIRLRPPRLPRPRPRPGEDPRP | 0.121
78 | RRIRIRPPRLPRPRPRPVACPRP | -0.154
79 | RRIRLRPPRLPRPRPRPCCNPRP | -0.155
80 | RRIRLRPPRLPRPRPRPWMNPRP | -0.0474
81 | RRIRSRPPRLPRPRPRPSYHPRP | -0.836
82 | RRIRKRPPRLPRPRPRPGSMPRP | 0.285
83 | RRIRLRPPRLPRPRPRPAGPPRP | 0.338
84 | RRIRFRPPRLPRPRPRPRLLPRP | 0.342
85 | RRIRNRPPRLPRPRPRPPMPPRP | 0.0312
86 | RRIRCRPPRLPRPRPRPWQKPRP | -0.0588
87 | RRIRNRPPRLPRPRPRPRCWPRP | 0.108
88 | RRIRVRPPRLPRPRPRPVWMPRP | 0.52

Row | Sequence | shrunken log2 fold change
89 | RRIRRRPPRLPRPRPRPRSGPRP | 0.751
90 | RRIRARPPRLPRPRPRPVQWPRP | 0.546
91 | RRIRIRPPRLPRPRPRPPEKPRP | -0.0181
92 | RRIRGRPPRLPRPRPRPHYYPRP | -0.119
93 | RRIRDRPPRLPRPRPRPRYIPRP | -0.356
94 | RRIRNRPPRLPRPRPRPWHYPRP | -0.25
95 | RRIRARPPRLPRPRPRPPVCPRP | 0.276
96 | RRIRHRPPRLPRPRPRPITTPRP | -0.0193
97 | RRIRPRPPRLPRPRPRPKEKPRP | 0.264
98 | RRIRPRPPRLPRPRPRPQMWPRP | 0.0355
99 | RRIRIRPPRLPRPRPRPCIWPRP | -0.278
100 | RRIRFRPPRLPRPRPRPEEKPRP | -0.0254
101 | RRIRTRPPRLPRPRPRPLMYPRP | -0.736
102 | RRIRLRPPRLPRPRPRPVCPPRP | 0.149
103 | RRIRYRPPRLPRPRPRPQYSPRP | -1.71
104 | RRIRGRPPRLPRPRPRPTCGPRP | 0.915
105 | RRIRVRPPRLPRPRPRPHEFPRP | -0.0515
106 | RRIRMRPPRLPRPRPRPMEIPRP | -0.129
107 | RRIRYRPPRLPRPRPRPHPKPRP | -0.0588
108 | RRIRPRPPRLPRPRPRPYSPPRP | -1.23
109 | RRIRGRPPRLPRPRPRPHFIPRP | -0.139
